# B1: MaSGR1 probe (dsDNA)
# DNA 1: ATCATATTTCTGAATTAAGGTACTGGCGGCACATCGATATGGTATC
# DNA 2: GATACCATATCGATGTGCCGCCAGTACCTTAATTCAGAAATATGAT
# B2: MaGWD1 probe (dsDNA)
# DNA 1: CTAATCACATGATGGTGTGTGGCCGCCATCATTCTCTCCCAAGCAACC
# DNA 2: GGTTGCTTGGGAGAGAATGATGGCGGCCACACACCATCATGTGATTAG
# B3: MaXYL23-like probe (dsDNA)
# DNA 1: GGCAATCAGTCGGAGGAGGAGCCGCCCGATTTGGTGCACTATCATC
# DNA 2: GATGATAGTGCACCAAATCGGGCGGCTCCTCCTCCGACTGATTGCC
# B4: MaAMY3 probe (dsDNA)
# DNA 1: CGGACTCACGCCACACCACAGCCGCCCCTGACGCAATTAGCGTCGA
# DNA 2: TCGACGCTAATTGCGTCAGGGGCGGCTGTGGTGTGGCGTGAGTCCG
# B5: MaEXP-A8 probe (dsDNA)
# DNA 1: GTTGGTTCATAAGGTGCTCCGGCGGCATGTGCTGCAGACACGAAGT
# DNA 2: ACTTCGTGTCTGCAGCACATGCCGCCGGAGCACCTTATGAACCAAC
# B6: MaPL8 probe (dsDNA)
# DNA 1: ATATCTGTGTGCTCTTGCGAGGCGGCTGGACTTTCCTGCACGCAAT
# DNA 2: ATTGCGTGCAGGAAAGTCCAGCCGCCTCGCAAGAGCACACAGATAT
# Biological target: GST-MaERF012 (Musa acuminata 'Fenjiao' banana, UniProt A0A804KA32 1-188)
# Experiment: EMSA; LightShift Chemiluminescent EMSA Kit; buffer, salt, pH and temperature not stated
# Conditions: protein: recombinant; tags: N-terminal GST (pGEX-4T-1); label: biotin 3' end; blunt
# Sequence of GST-MaERF012 (A0A804KA32 entry or part of it): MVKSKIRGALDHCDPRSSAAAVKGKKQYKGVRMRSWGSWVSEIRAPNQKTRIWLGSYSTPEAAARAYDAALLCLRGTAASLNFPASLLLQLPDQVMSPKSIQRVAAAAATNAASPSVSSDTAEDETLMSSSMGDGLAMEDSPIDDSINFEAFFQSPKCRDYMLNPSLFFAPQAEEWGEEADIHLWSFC
row,Binder,binding result
1,B1,binds
2,B2,binds
3,B3,binds
4,B4,binds
5,B5,binds
6,B6,binds

# Source: paper PMC9738063, “Ethylene Response Factor MaERF012 Modulates Fruit Ripening by Regulating Chlorophyll Degradation and Softening in Banana”
